Among the data in paper PMC3379008 are stoichiometry N values, retold here.

The assay deals with B/Florida/04/06 full-length HA protein produced from baculovirus in Spodoptera frugiperda insect cells (influenza B virus B/Florida/04/06). Description: SEC.

“B/Florida/04/06 full-length HA protein produced from baculovirus in Spodoptera frugiperda insect cells (natural protein)” gave a stoichiometry N of over 9 HA monomers.

As a reminder, the stoichiometry N is the number of molecules, sites or subunits per partner or assembly.
